B1: Table S3 C row 190 (dsDNA)
DNA 1: CGCTCGTAAGTGCTCCGGATGGAATCTGGTGCAGGG
DNA 2: CCCTGCACCAGATTCCATCCGGAGCACTTACGAGCG
B2: Table S3 C row 112 (dsDNA)
DNA 1: ACGTTGCCTCACTGCAGGAAGTGACCCAGGCCTTGC
DNA 2: GCAAGGCCTGGGTCACTTCCTGCAGTGAGGCAACGT
B3: Table S3 C row 131 (dsDNA)
DNA 1: AGTTGGTAGCGCCAACGGAAGCCCATGCCAAACTTG
DNA 2: CAAGTTTGGCATGGGCTTCCGTTGGCGCTACCAACT
B4: Table S3 C row 191 (dsDNA)
DNA 1: GATTGGTTCTCTAAGCTTCCGTCAGTTTACAATCCT
DNA 2: AGGATTGTAAACTGACGGAAGCTTAGAGAACCAATC
B5: Table S3 C row 66 (dsDNA)
DNA 1: CCAGGACAGCACCTATTTCCTGCTGGTGTAACAGAG
DNA 2: CTCTGTTACACCAGCAGGAAATAGGTGCTGTCCTGG
B6: Table S3 C row 111 (dsDNA)
DNA 1: GGATCCAGGACACTCCGGAAGACATCGTGCTGGAAG
DNA 2: CTTCCAGCACGATGTCTTCCGGAGTGTCCTGGATCC
B7: Table S3 C row 84 (dsDNA)
DNA 1: GCTTCTGGGAGAAGCCGGAAGAGACCTGACCCTGAA
DNA 2: TTCAGGGTCAGGTCTCTTCCGGCTTCTCCCAGAAGC
B8: Table S3 C row 86 (dsDNA)
DNA 1: CGCGTGATGGACGCCCGGAAGCCGGCACAACAAATG
DNA 2: CATTTGTTGTGCCGGCTTCCGGGCGTCCATCACGCG
B9: Table S3 C row 99 (dsDNA)
DNA 1: CGCTCCAGGGCCTCCCGGATGGCCTAGTCGGGCCCG
DNA 2: CGGGCCCGACTAGGCCATCCGGGAGGCCCTGGAGCG
B10: Table S3 C row 95 (dsDNA)
DNA 1: CGCAGGGTCACGTGACATCCTGCCTCGCCCCGCCCA
DNA 2: TGGGCGGGGCGAGGCAGGATGTCACGTGACCCTGCG
B11: Table S3 C row 56 (dsDNA)
DNA 1: CGCTCAGAGCTACGGCGGAAATGCCGCTCTTTTAAC
DNA 2: GTTAAAAGAGCGGCATTTCCGCCGTAGCTCTGAGCG
B12: Table S3 C row 152 (dsDNA)
DNA 1: TTTCCCCGACCCCGCCGGAAGACCAGGCCGGCGCGG
DNA 2: CCGCGCCGGCCTGGTCTTCCGGCGGGGTCGGGGAAA
B13: Table S3 C row 148 (dsDNA)
DNA 1: GGCTGCCCGTACTCCCGGAAGCCGAATCCCGGCTGG
DNA 2: CCAGCCGGGATTCGGCTTCCGGGAGTACGGGCAGCC
B14: Table S3 C row 169 (dsDNA)
DNA 1: CGCGGGCCCGGCCAGCGGAAGCCCCTGCGCCCGCGC
DNA 2: GCGCGGGCGCAGGGGCTTCCGCTGGCCGGGCCCGCG
B15: Table S3 C row 97 (dsDNA)
DNA 1: CACCTGCTACTCAAAGTTCCGCCTCTCTTCAGCGAG
DNA 2: CTCGCTGAAGAGAGGCGGAACTTTGAGTAGCAGGTG
B16: Table S3 C row 102 (dsDNA)
DNA 1: CCCCGCGTCCCAGACCGGAAGAAGCCCGGCGCAGAC
DNA 2: GTCTGCGCCGGGCTTCTTCCGGTCTGGGACGCGGGG
B17: Table S3 C row 92 (dsDNA)
DNA 1: TCCCTAGTTTCTGCCCGGAAGATGGAGCCGCCATCT
DNA 2: AGATGGCGGCTCCATCTTCCGGGCAGAAACTAGGGA
B18: Table S3 C row 4 (dsDNA)
DNA 1: CTCTCAACCCAGCCGCTTCCTGGTTGTTCGTCGCAA
DNA 2: TTGCGACGAACAACCAGGAAGCGGCTGGGTTGAGAG

What follows are binders tested against RUNX1 (Homo sapiens, UniProt Q01196) (assay: gcPBM; 2 nM RUNX1). Details: tags: N-terminal GST (pDEST15), kept (PMC6008103); label: surface-attached array probe.
Sequence of RUNX1 (Q01196 whole entry): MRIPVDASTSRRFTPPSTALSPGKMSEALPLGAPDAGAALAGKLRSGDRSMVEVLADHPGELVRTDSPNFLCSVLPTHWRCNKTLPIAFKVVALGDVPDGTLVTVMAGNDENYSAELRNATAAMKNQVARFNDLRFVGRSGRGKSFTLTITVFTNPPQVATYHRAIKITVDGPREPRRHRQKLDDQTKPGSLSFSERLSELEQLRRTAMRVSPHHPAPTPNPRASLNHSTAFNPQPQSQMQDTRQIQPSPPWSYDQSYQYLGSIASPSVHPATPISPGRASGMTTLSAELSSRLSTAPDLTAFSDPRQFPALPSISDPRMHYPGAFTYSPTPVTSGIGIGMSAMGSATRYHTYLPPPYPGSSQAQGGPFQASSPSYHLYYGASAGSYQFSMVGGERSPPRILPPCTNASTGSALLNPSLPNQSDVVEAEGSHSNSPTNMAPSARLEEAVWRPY

Q: With B1 as the binder, how does the binding signal read?
A: 780 PBM fluorescence, median of replicate spots

Q: With B2 as the binder, how does the binding signal read?
A: 771 PBM fluorescence, median of replicate spots

Q: How did the binding signal turn out when B3 was run?
A: 778 PBM fluorescence, median of replicate spots

Q: B4 was tested. Which binding signal did it give?
A: 775 PBM fluorescence, median of replicate spots

Q: B5 was tested. Which binding signal did it give?
A: 778 PBM fluorescence, median of replicate spots

Q: With B6 as the binder, how does the binding signal read?
A: 774 PBM fluorescence, median of replicate spots

Q: Which binding signal does the source give for B7 here?
A: 782 PBM fluorescence, median of replicate spots

Q: How did the binding signal turn out when B8 was run?
A: 777 PBM fluorescence, median of replicate spots

Q: B9 was tested. Which binding signal did it give?
A: 786 PBM fluorescence, median of replicate spots

Q: For B10, which binding signal is on record?
A: 783 PBM fluorescence, median of replicate spots

Q: For B11, which binding signal is on record?
A: 786 PBM fluorescence, median of replicate spots

Q: B12 was tested. Which binding signal did it give?
A: 787 PBM fluorescence, median of replicate spots

Q: With B13 as the binder, how does the binding signal read?
A: 775 PBM fluorescence, median of replicate spots

Q: B14 was tested. Which binding signal did it give?
A: 779 PBM fluorescence, median of replicate spots

Q: B15 was tested. Which binding signal did it give?
A: 779 PBM fluorescence, median of replicate spots

Q: B16 was tested. Which binding signal did it give?
A: 770 PBM fluorescence, median of replicate spots

Q: B17 was tested. Which binding signal did it give?
A: 788 PBM fluorescence, median of replicate spots

Q: For B18, which binding signal is on record?
A: 782 PBM fluorescence, median of replicate spots

From article PMC10681739, “High-throughput data and modeling reveal insights into the mechanisms of cooperative DNA-binding by transcription factor proteins”
